This is an account of results in PMC7340258, “Induced DNA bending by unique dimerization of HigA antitoxin” (IUCrJ, 2020).

The target of data set [1] is T1, MtHigA3 (Mycobacterium tuberculosis H37Rv, UniProt O53333 1-109).
T1 sequence: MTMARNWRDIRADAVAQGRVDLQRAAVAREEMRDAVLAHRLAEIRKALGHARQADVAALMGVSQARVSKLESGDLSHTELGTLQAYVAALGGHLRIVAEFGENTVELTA
Put plainly: EMSA; 0.1-0.6 uM protein, 0.01 uM DNA. Particulars: protein: recombinant; tags: C-terminal […]; chain copies: 2; blunt. In general terms: Mobility shift assays separate free from complexed probe on a gel.

Data set [2] concerns the molecule itself. Put plainly: SEC; Superdex 75 (10/300GL), 20 mM citric acid pH 5.0, 150 mM NaCl, 2 mM β-mercaptoethanol; single peak at 26 kDa. Background: SEC sorts molecules by how far they enter the pores of the column.

B1: DNA4 (DNA-4, palindrome around -10 box) (dsDNA)
DNA 1: AGATATAACCTAGAGGTTATACTG
DNA 2: CAGTATAACCTCTAGGTTATATCT
For B1, in data set [1], the binding result is given as “no binding”.

B2: M. tuberculosis HigA3 antitoxin (natural protein)
chain: MTMARNWRDIRADAVAQGRVDLQRAAVAREEMRDAVLAHRLAEIRKALGHARQADVAALMGVSQARVSKLESGDLSHTELGTLQAYVAALGGHLRIVAEFGENTVELTA
notes: also called MtHigA3
As for B2, the “stoichiometry N” value in data set [2] was 2.

B3: DNA1 (DNA-1, -35 box) (dsDNA)
DNA 1: CCGACGATGACCGCGCAC
DNA 2: GTGCGCGGTCATCGTCGG
Regarding B3, the binding result in data set [1] was “no binding”.

By stoichiometry N is commonly meant a count of units in the complex or per binding partner.
